{
  "source": "paper PMC9093745",
  "about": "“Carbohydrate Metabolism in Bacteria: Alternative Specificities in ADP-Glucose Pyrophosphorylases Open Novel Metabolic Scenarios and Biotechnological Tools” (Frontiers in Microbiology, 2022)",
  "key": {"purified protein [1]": {"substrate": "N[C@H]1[C@@H](OP(=O)(O)O)O[C@H](CO)[C@@H](O)[C@@H]1O", "assay": "purified protein", "conditions": "ATP co-substrate, Mg2+, pH 8.0, 37°C, no activator"}, "purified protein [2]": {"substrate": "Nc1ncnc2c1ncn2[C@@H]1O[C@H](COP(=O)(O)OP(=O)(O)OP(=O)(O)O)[C@@H](O)[C@H]1O", "assay": "purified protein", "conditions": "1 mM GlcN-1P co-substrate, Mg2+, pH 8.0, 37°C"}},
  "data": [
    {"protein": "G. stearothermophilus ADP-Glc PPase GlgC/GlgD (Geobacillus stearothermophilus) (protein) MKKKCIAMLLAGGQGSRLRSLTTNIAKPAVPFGGKYRIIDFTLSNCTNSGIDTVGVLTQYQPLLLHSYIGIGSAWDLDRRNGGVTVLPPYSVSSGVKWYEGTANAVYQNINYIEQYNPDYVLVLSGDHIYKMDYQHMLDYHIAKQADVTISVIEVPWEEASRFGIMNTNEEMEIVEFAEKPAEPKSNLASMGIYIFNWPLLKQYLQIDNANPHSSHDFGKDVIPMLLREKKRPFAYPFEGYWKDVGTVKSLWEANMDLLDENNELDLFDRSWRIYSVNPNQPPQYISPEAEVSDSLVNEGCVVEGTVERSVLFQGVRIGKGAVVKESVIMPGAAVSEGAYVERAIVTPDSIIPPHSSVCPEDADDVVLVTAEWLKQSNEETARKDEA", "values": [
      {"measurement": "Km", "setting": "purified protein [1]", "result": 400, "unit": "µM"},
      {"measurement": "Km", "setting": "purified protein [2]", "result": 210, "unit": "µM"}
    ]}
  ]
}
